{
  "source": "paper PMC10764958",
  "binders": {"B1": {"name": "Cy5-RNA (SARS-CoV-2 RNA) (ssRNA)", "RNA": "CACUCGCUAUGUCGAUAACAACUUCUGUGGCCCUGAUGGCUACCCUCUUGAGUGCAUUAAAGA"}},
  "molecular_target": "SARS2-NP WT (bacterial) (SARS-CoV-2, UniProt P0DTC9 1-419)",
  "test": "MST; MST: PBS with 0.05% Tween, room temperature; […]",
  "conditions": "protein: recombinant; tags: 2xStrep (C-term); chain copies: 2",
  "data": [
    {"binder": "B1", "values": [
      {"measurement": "binding result", "value": "binds"}
    ]}
  ]
}
